From paper PMC3834827, “Crystal structure of the DdrB/ssDNA complex from Deinococcus radiodurans reveals a DNA binding surface involving higher-order oligomeric states” (Nucleic Acids Research, 2013)
Numbering of substitutions follows the chain as printed.

What was measured:
[1] = target: DdrB E51A mutant with N-terminal 6His tag (Deinococcus radiodurans) (UniProt Q9RY80); experiment: AUC; sedimentation velocity, 20°C, 42 krpm, 100 mM KCl, 20 mM Tris pH 8.0, loading concentrations 10 µM to 0.64 mM, absorbance and interference optics, no DNA; pentamer and assemblies of pentamers
[2] = target: DdrB R83A mutant with N-terminal 6His tag (Deinococcus radiodurans) (UniProt Q9RY80); experiment: as above
[3] = target: the molecule itself; experiment: crystal structure; 740 µM DdrBDr with 160 µM 50b poly dT, hanging drop at 20°C; 2.30 Å; pentamer in the asymmetric unit, pentamer-pentamer interface by crystallographic symmetry
DdrB W66A = target: T1, DdrB W66A (Deinococcus radiodurans, UniProt Q9RY80 1-144, W66A); experiment: fluorescence anisotropy; per pentamer; saturating anisotropy fixed to wild-type value; FP: 20 mM Tris pH 8.0, 100 mM KCl, 200 nM DNA; EMSA: same plus 15% glycerol, 10 uM DNA; temperature not stated; conditions: protein: recombinant; tags: N-terminal 6His; chain copies: 5; label: 5' 6-FAM
T1 sequence: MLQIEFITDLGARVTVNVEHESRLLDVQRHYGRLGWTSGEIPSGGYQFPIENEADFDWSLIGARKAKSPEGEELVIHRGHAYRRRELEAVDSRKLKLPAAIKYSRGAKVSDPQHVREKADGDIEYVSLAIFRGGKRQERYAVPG

DdrB E51A [4] = target: T2, DdrB E51A (Deinococcus radiodurans, UniProt Q9RY80 1-144, E51A); experiment: fluorescence anisotropy; 3 uM pentamer; full DNA binding activity retained; FP: 20 mM Tris pH 8.0, 100 mM KCl, 200 nM DNA; EMSA: same plus 15% glycerol, 10 uM DNA; temperature not stated; conditions: protein: recombinant; tags: N-terminal 6His; chain copies: 5; label: 5' 6-FAM
T2 sequence: T1 sequence with E51A, A66W

DdrB1-144 [5] = target: T3, DdrB1-144 (Deinococcus radiodurans, UniProt Q9RY80 1-144); experiment: fluorescence anisotropy; per pentamer, A+B=AB model; FP: 20 mM Tris pH 8.0, 100 mM KCl, 200 nM DNA; EMSA: same plus 15% glycerol, 10 uM DNA; temperature not stated; conditions: protein: recombinant; tags: N-terminal 6His (pET151, not cleaved); chain copies: 5; label: 5' 6-FAM
T3 sequence: T1 sequence with A66W

DdrB1-144 [6] = target: T3, DdrB1-144; experiment: EMSA; pentamer, decamer and penta-decamer complexes; 10 uM DNA; FP: 20 mM Tris pH 8.0, 100 mM KCl, 200 nM DNA; EMSA: same plus 15% glycerol, 10 uM DNA; temperature not stated; conditions: protein: recombinant; tags: N-terminal 6His (pET151, not cleaved); chain copies: 5
DdrB E51A [7] = target: T2, DdrB E51A; experiment: EMSA; single pentamer-DNA complex only, no higher-order shifts; 10 uM DNA; FP: 20 mM Tris pH 8.0, 100 mM KCl, 200 nM DNA; EMSA: same plus 15% glycerol, 10 uM DNA; temperature not stated; conditions: protein: recombinant; tags: N-terminal 6His; chain copies: 5
DdrB1-144, tag removed = target: T4, DdrB1-144, tag removed (Deinococcus radiodurans, UniProt Q9RY80 1-144); experiment: X-ray crystallography 2.30 A; MES pH 5.6, KCl, 10 mM MgCl2, PEG 8000; FP: 20 mM Tris pH 8.0, 100 mM KCl, 200 nM DNA; EMSA: same plus 15% glycerol, 10 uM DNA; temperature not stated; conditions: protein: recombinant; tags: 6His removed by TEV; chain copies: 5
T4 sequence: T1 sequence with A66W

For “DdrB E51A mutant with N-terminal 6His tag (from UniProt Q9RY80 1-144) (domain or fragment)”, the percent of the total signal from the pentamer [1] was 88% and the stoichiometry N [1] was 5.

“DdrB R83A mutant with N-terminal 6His tag (from UniProt Q9RY80 1-144) (domain or fragment)” showed a percent of the total signal from the pentamer [2] of 92% and a stoichiometry N [2] of 5.

B1: DdrB1-144 from Deinococcus radiodurans, 6His tag removed (protein used in crystallography) (domain or fragment, UniProt Q9RY80 1-144, looked up)
chain: T1 sequence with A66W
notes: DdrB, Deinococcus radiodurans, residues 1-144 (stop codon introduced following residue 144), construct MJ4748 in pET151/D-Topo; Pentamer; Tag cleaved with TEV protease; also called DdrBDr; not shown: His6, N-terminal, cleaved
B1 was tested, and the “stoichiometry N” value [3] was 5.

B2: 20b poly dT (ssDNA)
DNA: TTTTTTTTTTTTTTTTTTTT
For B2, the Kd (DdrB W66A) was 51 µM, the binding result (DdrB E51A [4]) was “binds” and the Kd (DdrB1-144 [5]) was 3.6 µM.

B3: 50b poly dT (ssDNA)
DNA: TTTTTTTTTTTTTTTTTTTTTTTTTTTTTTTTTTTTTTTTTTTTTTTTTT
B3: binds (DdrB1-144 [6]); binds (DdrB E51A [7]); binds (DdrB1-144, tag removed).
